As a reminder, the Kd is a measure of binding affinity in units of concentration.

In test [1] the target is T1, human FZD9 expressed on transfected HEK293 cells (human, UniProt O00144 23-591).
T1 sequence: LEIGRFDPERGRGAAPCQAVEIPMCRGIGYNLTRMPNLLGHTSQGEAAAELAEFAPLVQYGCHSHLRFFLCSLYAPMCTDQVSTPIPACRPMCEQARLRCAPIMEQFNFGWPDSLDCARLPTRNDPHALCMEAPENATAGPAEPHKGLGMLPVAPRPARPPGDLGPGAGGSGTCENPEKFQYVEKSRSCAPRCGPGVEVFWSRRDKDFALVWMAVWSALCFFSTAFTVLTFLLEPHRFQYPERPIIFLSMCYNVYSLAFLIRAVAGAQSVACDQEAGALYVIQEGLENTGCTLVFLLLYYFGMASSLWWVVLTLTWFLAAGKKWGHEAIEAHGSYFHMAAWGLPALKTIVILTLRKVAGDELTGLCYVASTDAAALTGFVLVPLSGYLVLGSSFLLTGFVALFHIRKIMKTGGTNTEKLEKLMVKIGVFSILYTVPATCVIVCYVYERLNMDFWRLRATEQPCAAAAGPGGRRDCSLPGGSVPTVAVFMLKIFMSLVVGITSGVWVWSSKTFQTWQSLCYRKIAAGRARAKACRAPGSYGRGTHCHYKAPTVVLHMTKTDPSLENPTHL
Kind of test: flow cytometry, HEK293 cells transiently co-transfected with FZD expression vector and GFP. As to the method:
To measure antibody binding to FZD by flow cytometry HEK293 cells were co-transfected with FZD expression vectors and the transfection marker GFP. Twenty-four to forty-eight hours post-transfection, cells were collected in suspension and incubated on ice with anti-FZD antibodies (10 μg/ml unless otherwise indicated) or control IgG to detect background antibody binding. The cells were washed and primary antibodies detected with Fc domain-specific secondary antibodies conjugated to a fluorescent chromophore (e.g. phycoerythrin conjugated anti-human IgG). Labeled cells were then analyzed by flow cytometry to identify anti-FZD antibodies that specifically recognize cell surface expression of FZD protein. Monoclonal antibodies 18R5 and 18R8 recognized FZD on transfected cells. As shown in FIG. 1 and FIG. 2, both 18R8 and 18R5 bind to multiple FZD including FZD1, FZD2, FZD5, FZD7, and FZD8. To examine the relative ability of 18R8 and 18R5 to bind to each FZD protein, titration analysis was conducted wherein the amount of antibody in the binding reaction was varied (FIG. 2).
In general terms: A flow cytometer gives signals particle by particle.

The target of a further test is T2, FZD5-Fc (Homo sapiens (Human), UniProt Q13467 27-233, limits assumed).
T2 construct: also called recombinant FZD5 Fc protein; not shown: Fc part, not described
T2 sequence: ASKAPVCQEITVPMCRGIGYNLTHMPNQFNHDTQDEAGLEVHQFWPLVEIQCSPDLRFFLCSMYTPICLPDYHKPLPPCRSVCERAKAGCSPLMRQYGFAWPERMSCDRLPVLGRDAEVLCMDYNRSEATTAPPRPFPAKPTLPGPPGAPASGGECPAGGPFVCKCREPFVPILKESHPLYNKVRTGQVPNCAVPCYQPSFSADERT
In words: SPR, Biacore 2000; Fzd Fc immobilized on CM5 chip, IgG 100 to 0.78 nM in solution. The method, then: (§1) The KDs of 18R8 and 18R5 antibodies were determined using the Biacore 2000 system from Biacore Lifescience (GE Healthcare). Specifically, purified anti-Fzd7 antibodies were serially diluted in 2-fold increments from 100 to 0.78 nM in HBS-P (0.01 M HEPES pH 7.4, 0.15 M NaCl, 0.005% v/v Surfactant P20). Each dilution was tested against recombinant Fzd Fc proteins immobilized onto a CM5 Biacore chip. The association and dissociation rates were measured and KD values determined using the Biaevaluation software program (Table 5, below).

The target of test [2] is T3, recombinant FZD1 Fc protein (Biacore) (Homo sapiens (Human), UniProt Q9UP38 70-321, limits assumed).
T3 construct: also called Fzd Fc; not shown: Fc part, not described
The test is described as above. The method, then:
as §1

Test [3] has as its target T4, recombinant FZD2 Fc protein (Biacore) (Homo sapiens (Human), UniProt Q14332 24-250, limits assumed).
T4 construct: also called Fzd Fc; not shown: Fc part, not described
Described as above. As to the method:
as §1

Test [4] has as its target T5, recombinant FZD7 Fc protein (Biacore) (Homo sapiens (Human), UniProt O75084 33-255, limits assumed).
T5 construct: also called Fzd Fc; not shown: Fc part, not described
Described as above. As to the method:
as §1

T4 sequence (Q14332 24-250 limits assumed): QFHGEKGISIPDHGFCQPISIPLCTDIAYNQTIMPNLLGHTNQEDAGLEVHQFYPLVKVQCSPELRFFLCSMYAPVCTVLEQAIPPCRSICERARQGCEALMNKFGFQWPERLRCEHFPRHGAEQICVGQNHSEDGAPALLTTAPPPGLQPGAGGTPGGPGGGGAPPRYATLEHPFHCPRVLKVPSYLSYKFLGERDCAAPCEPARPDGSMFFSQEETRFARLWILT
T3 sequence (Q9UP38 70-321 limits assumed): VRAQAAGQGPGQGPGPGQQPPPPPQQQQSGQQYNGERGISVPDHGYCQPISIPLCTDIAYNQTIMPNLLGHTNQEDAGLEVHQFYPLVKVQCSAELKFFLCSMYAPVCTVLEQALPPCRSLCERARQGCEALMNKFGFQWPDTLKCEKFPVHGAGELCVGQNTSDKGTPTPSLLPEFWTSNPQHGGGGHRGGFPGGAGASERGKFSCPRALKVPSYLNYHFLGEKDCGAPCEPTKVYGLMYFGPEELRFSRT

B1: 18R8 IgG antibody (human IgG2, lambda) (antibody, V domains shown)
VH: EVQLVESGGGLVQPGGSLRLSCAASGFTFSHYTLSWVRQAPGKGLEWVSVISGDGSYTYYADSVKGRFTISSDNSKNTLYLQMNSLRAEDTAVYYCARNFIKYVFANWGQGTLVTVSS
VL: DIELTQPPSVSVAPGQTARISCSGDKLGKKYASWYQQKPGQAPVLVIYEKDNRPSGIPERFSGSNSGNTATLTISGTQAEDEADYYCSSFAGNSLEVFGGGTKLTVLG
notes: Expressed in CHO cells, protein A purified; also called 18R8 IgG2 antibody; anti-FZD antibody 18R8
B1: the binding result in test [1] is on record as “no binding (tested: 10 ug/ml)”. Besides, the Kd in the test with FZD5-Fc came out at 4.2 nM; in test [2] it was 15.6 nM; in test [3], 6.2 nM; in test [4], 5.2 nM.

Source of the values: patent US20130295106A1 (ONCOMED PHARMACEUTICALS, published 2013).
